A value given as a limit tells only on which side of the number the result lay.

These results are taken from PMC2796264.

The target of this assay is 26S proteasome purified from rabbit muscle (rabbit (endogenous in muscle)).

The substance “polyubiquitinated E6AP (from UniProt P0CG47 1-76)” had a hydrolysis of suc-GGL-amc by rabbit 26S proteasomes with ubiquitinated E6AP of less than 4 fold.
